Assay results reported in the supplement of paper PMC10598134.
± gives the standard deviation.

Assay: collision cross section of modified peptide (TIMS, N2, iRT-aligned); higher = larger / more extended gas-phase ion
Outline: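 Collision cross section was derived from the Mason-Schamp equation. Each value averages 1–3 technical replicates of the most abundant feature per charge state, measured on a timsTOF Pro/HT in dda-PASEF mode (nitrogen, ~2.4 mbar) after a 120-min nanoflow C18 gradient at 60 °C. Synthetic peptide pools (~100 fmol/µL in 2% acetonitrile/0.1% formic acid, iRT standard spiked 1:40) were identified with MaxQuant, and 1/K0 was calibrated with three reference ions and aligned run-wise to the median iRT peptide deviation.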

[1] = charge state: 2, modification: Dimethyl (K)
[2] = charge state: 3, modification: Dimethyl (K)
[3] = charge state: 2, modification: GlyGly (K)
[4] = charge state: 3, modification: GlyGly (K)
[5] = charge state: 2, modification: Phospho (Y)
[6] = charge state: 2, modification: Butyryl
[7] = charge state: 2, modification: Citrullination (R)
[8] = charge state: 2, modification: Malonyl
[9] = charge state: 2, modification: Trimethyl (K)
[10] = charge state: 3, modification: Trimethyl (K)

VFIGNLNTLVVKK [_VFIGNLNTLVVK(Dimethyl (K))K_]
collision cross section [1]: 427.12 ± 1.4 Å² | collision cross section [2]: 478.47 ± 1.2 Å²

LLEQKTQESQK [_LLEQK(GlyGly (K))TQESQK_]
collision cross section [3]: 410.36 ± 1.9 Å² | collision cross section [4]: 452.18 ± 1.1 Å²

LEENHYNTYISK [_LEENHYNTY(Phospho (Y))ISK_]
collision cross section [5]: 422.15 ± 0.06 Å² | collision cross section (charge state: 3, modification: Phospho (Y)): 477.33 ± 1 Å²

ATVASSTQKFQDLGVK [_ATVASSTQK(GlyGly (K))FQDLGVK_]
collision cross section [3]: 480.31 ± 1.5 Å² | collision cross section [4]: 500.25 ± 0.34 Å²

SITHSTVGSKGEK [_SITHSTVGSK(hydroxyisobutyryl)GEK_]
collision cross section (charge state: 2, modification: hydroxyisobutyryl): 401.03 ± 1.4 Å² | collision cross section (charge state: 3, modification: hydroxyisobutyryl): 446.16 ± 2.7 Å²

STGLELETPSLVPVKK [_STGLELETPSLVPVK(Dimethyl (K))K_]
collision cross section [1]: 456.56 ± 2.3 Å² | collision cross section [2]: 515.08 ± 1.7 Å²

PSVSTKLISK [_PSVSTK(Succinyl)LISK_]
collision cross section (charge state: 2, modification: Succinyl): 355.43 ± 0.73 Å²

VNIGQGSHPQKVK [_VNIGQGSHPQK(Propionyl)VK_]
collision cross section (charge state: 3, modification: Propionyl): 485.17 ± 0.74 Å²

LLEQKTQESQK [_LLEQK(Butyryl)TQESQK_]
collision cross section [6]: 398.26 ± 0.79 Å²

DYNVTANSK [_DY(Phospho (Y))NVTANSK_]
collision cross section [5]: 337.74 ± 0.067 Å²

VDIDAPDVSIEGPDAKLK [_VDIDAPDVSIEGPDAK(Butyryl)LK_]
collision cross section [6]: 472.57 ± 0.49 Å²

ASEALLKQLK [_ASEALLK(GlyGly (K))QLK_]
collision cross section [3]: 378.14 ± 0.54 Å² | collision cross section [4]: 443.25 ± 0.74 Å²

KYEEIDNAPEER [_K(Methyl (K))YEEIDNAPEER_]
collision cross section (charge state: 2, modification: Methyl (K)): 398.83 ± 1.1 Å² | collision cross section (charge state: 3, modification: Methyl (K)): 466.31 ± 3.7 Å²

PLPVALQTRLAK [_PLPVALQTR(Citrullination (R))LAK_]
collision cross section [7]: 391.36 ± 0.54 Å²

RGATPPAPPR [_R(Citrullination (R))GATPPAPPR_]
collision cross section [7]: 332.88 ± 2.4 Å²

RGGFAVQAK [_R(Methyl (R))GGFAVQAK_]
collision cross section (charge state: 2, modification: Methyl (R)): 338.01 ± 1.4 Å²

IPQEKCILQTDVK [_IPQEK(Malonyl)CILQTDVK_]
collision cross section [8]: 431.57 Å²

SYGIPYIETSAK [_SY(Nitro (Y))GIPYIETSAK_]
collision cross section (charge state: 2, modification: Nitro (Y)): 386.26 ± 0.17 Å²

VSPASSVDSNIPSSQGYKK [_VSPASSVDSNIPSSQGYK(Gluratylation)K_]
collision cross section (charge state: 2, modification: Glutarylation): 466.49 ± 3 Å² | collision cross section (charge state: 3, modification: Glutarylation): 552.93 ± 0.14 Å²

TLHLSHLNRFPAR [_TLHLSHLNR(Citrullination (R))FPAR_]
collision cross section (charge state: 3, modification: Citrullination (R)): 509.04 ± 32 Å²

GEAGPTGPQGEPGVRGIR [_GEAGPTGPQGEP(Hydroxyproline)GVRGIR_]
collision cross section (charge state: 3, modification: Hydroxyproline): 499.21 ± 1.2 Å²

TLDEILQEKK [_TLDEILQEK(Formyl)K_]
collision cross section (charge state: 2, modification: Formyl): 372.98 ± 1.9 Å²

DVNAAIAAIKTK [_DVNAAIAAIK(Trimethyl (K))TK_]
collision cross section [9]: 402.42 ± 1.1 Å² | collision cross section [10]: 465.71 ± 2.2 Å²

VGLQVVAVKAPGFGDNR [_VGLQVVAVK(Dimethyl (K))APGFGDNR_]
collision cross section [1]: 465.4 ± 1.7 Å² | collision cross section [2]: 490.92 ± 1.2 Å²

SNEEGSEEKGPEVR [_SNEEGSEEK(Trimethyl (K))GPEVR_]
collision cross section [9]: 400.43 Å² | collision cross section [10]: 464.15 ± 1.8 Å²

FNALFAQGNYSEAAK [_FNALFAQGNY(Phospho (Y))SEAAK_]
collision cross section [5]: 426.34 ± 0.64 Å²

GYLGPEQLPDCLK [_GY(Phospho (Y))LGPEQLPDCLK_]
collision cross section [5]: 400.34 ± 0.08 Å²

YVGESEANIR [_Y(Phospho (Y))VGESEANIR_]
collision cross section [5]: 370.09 ± 0.95 Å²

DASTLQSQKAEGTGDAK [_DASTLQSQK(Butyryl)AEGTGDAK_]
collision cross section [6]: 440.14 ± 0.24 Å² | collision cross section (charge state: 3, modification: Butyryl): 511.91 ± 3.5 Å²

VNVEAPDVNLEGLGGKLK [_VNVEAPDVNLEGLGGK(Trimethyl (K))LK_]
collision cross section [9]: 469.62 ± 0.99 Å² | collision cross section [10]: 545.57 ± 1.8 Å²

LFVGGIKEDTEEHHLR [_LFVGGIK(Malonyl)EDTEEHHLR_]
collision cross section (charge state: 3, modification: Malonyl): 537.8 Å²

IGNSYFKEEK [_IGNSYFK(Trimethyl (K))EEK_]
collision cross section [9]: 378.87 ± 0.63 Å² | collision cross section [10]: 441.97 ± 1.8 Å²

DLGKFQVATDALK [_DLGK(Malonyl)FQVATDALK_]
collision cross section [8]: 406.38 ± 0.61 Å²

GGGGGRGGLHDFR [_GGGGGR(Methyl (R))GGLHDFR_]
collision cross section (charge state: 3, modification: Methyl (R)): 457.91 ± 1.5 Å²
